By IC50 is commonly meant the midpoint of a concentration-inhibition curve. One may read the Kd as the constant that tells how readily two partners part at equilibrium. Higher therefore signals lower affinity. A word on the kon: it is the rate constant with which the complex forms. A higher kon goes with faster complex formation.

The source of these data is patent publication US20170015742A1 (published 2017).

B1: hBEW-1E3.1 (antibody, V domains shown)
VH: EIQLVQSGSELKKPGASVKVSCKASGYPFTNSGMYWVKQAPGQGLEYMGWINTEAGKPTYADDFKGRFVFSLDTSVSTAYLQISSLKAEDTAVYFCARWGYISDNSYGWFDYWGQGTLVTVSS
VL: ETVLTQSPATLSLSPGERATLSCRASEGVYSYMHWYQQKPGQQPRLLIYKASNLASGVPARFSGSGSGTDFTLTISSLEPEDFAVYFCHQNWNDPLTFGQGTKLEIK
notes: Humanized IgG
B2: hBEW-1E3.4 (antibody, V domains shown)
VH: B1 VH
VL: ATQLTQSPSSLSASVGDRVTISCRASEGVYSYMHWYQQKPGKQPKLLIYKASNLASGVPSRFSGSGSGTDFTLTISSLQPEDFATYFCHQNWNDPLTFGQGTKLEIK
notes: Humanized IgG
B3: hBEW-1E3.2 (antibody, V domains shown)
VH: B1 VH with S9A, L11V, V69T, S71T, V76T, Q82E, S84R, K87R, A88S, E89D
VL: B1 VL
notes: Humanized IgG
B4: hBEW-1E3.5 (antibody, V domains shown)
VH: B1 VH with S9A, L11V, V69T, S71T, V76T, Q82E, S84R, K87R, A88S, E89D
VL: B2 VL
notes: Humanized IgG
B5: 9E8.4-GS-4G8.3 DVD-Ig (PR-1563988) (bispecific antibody, human IgG1, kappa, L234A L235A)
heavy: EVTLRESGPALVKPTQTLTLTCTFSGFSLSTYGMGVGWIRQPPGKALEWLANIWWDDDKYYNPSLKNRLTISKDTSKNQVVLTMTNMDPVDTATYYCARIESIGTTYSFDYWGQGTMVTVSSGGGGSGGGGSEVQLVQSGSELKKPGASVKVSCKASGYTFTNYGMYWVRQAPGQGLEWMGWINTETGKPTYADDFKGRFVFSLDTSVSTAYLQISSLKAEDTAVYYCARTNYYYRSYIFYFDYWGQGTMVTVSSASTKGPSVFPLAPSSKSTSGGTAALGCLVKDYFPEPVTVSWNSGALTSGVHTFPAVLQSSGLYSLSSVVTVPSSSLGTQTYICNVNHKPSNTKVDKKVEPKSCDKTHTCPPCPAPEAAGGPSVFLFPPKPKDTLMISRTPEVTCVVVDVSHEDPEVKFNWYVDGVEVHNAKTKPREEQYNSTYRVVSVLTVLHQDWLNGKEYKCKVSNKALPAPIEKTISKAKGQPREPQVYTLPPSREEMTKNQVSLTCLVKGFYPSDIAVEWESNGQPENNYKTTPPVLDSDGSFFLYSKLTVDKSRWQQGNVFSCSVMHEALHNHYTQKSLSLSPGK
light: EFVLTQSPGTLSLSPGERATLSCERSSGDIGDSYVSWYQQKPGQAPRLVIYADDQRPSGIPDRFSGSGSGTDFTLTISRLEPEDFAVYYCQSYDINIDIVFGGGTKVEIKGGGSGGGGSGDTVLTQSPATLSLSPGERATLSCRASESVSTHMHWYQQKPGQAPRLLIYGASNLESGVPARFSGSGSGTDFTLTISSLEPEDFAVYFCQQSWNDPFTFGQGTKLEIKRTVAAPSVFIFPPSDEQLKSGTASVVCLLNNFYPREAKVQWKVDNALQSGNSQESVTEQDSKDSTYSLSSTLTLSKADYEKHKVYACEVTHQGLSSPVTKSFNRGEC
B6: 4G8.3-GS-9E8.4 anti-VEGF-A/anti-PDGF-BB DVD-Ig (PR-1564010) (bispecific antibody, human IgG1, kappa, L234A L235A)
heavy: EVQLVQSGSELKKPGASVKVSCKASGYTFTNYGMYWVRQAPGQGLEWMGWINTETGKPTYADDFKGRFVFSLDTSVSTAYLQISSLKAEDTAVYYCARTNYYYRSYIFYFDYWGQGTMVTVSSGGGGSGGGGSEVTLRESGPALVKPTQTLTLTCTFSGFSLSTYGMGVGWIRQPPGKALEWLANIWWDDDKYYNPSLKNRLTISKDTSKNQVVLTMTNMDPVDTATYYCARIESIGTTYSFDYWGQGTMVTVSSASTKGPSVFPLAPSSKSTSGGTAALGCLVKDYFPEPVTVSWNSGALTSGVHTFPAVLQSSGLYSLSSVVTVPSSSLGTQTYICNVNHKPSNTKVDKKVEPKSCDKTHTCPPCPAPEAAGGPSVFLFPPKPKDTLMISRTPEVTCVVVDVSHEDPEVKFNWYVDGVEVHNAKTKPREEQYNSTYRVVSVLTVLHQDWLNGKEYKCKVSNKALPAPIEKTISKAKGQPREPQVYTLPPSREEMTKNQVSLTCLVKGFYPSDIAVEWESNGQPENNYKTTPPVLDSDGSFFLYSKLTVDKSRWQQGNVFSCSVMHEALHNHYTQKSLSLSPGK
light: DTVLTQSPATLSLSPGERATLSCRASESVSTHMHWYQQKPGQAPRLLIYGASNLESGVPARFSGSGSGTDFTLTISSLEPEDFAVYFCQQSWNDPFTFGQGTKLEIKRGGSGGGGSGEFVLTQSPGTLSLSPGERATLSCERSSGDIGDSYVSWYQQKPGQAPRLVIYADDQRPSGIPDRFSGSGSGTDFTLTISRLEPEDFAVYYCQSYDINIDIVFGGGTKVEIKGTVAAPSVFIFPPSDEQLKSGTASVVCLLNNFYPREAKVQWKVDNALQSGNSQESVTEQDSKDSTYSLSSTLTLSKADYEKHKVYACEVTHQGLSSPVTKSFNRGEC
B7: 4G8.3-LS-9E8.4 anti-VEGF-A/anti-PDGF-BB DVD-Ig (PR-1564013) (bispecific antibody, human IgG1, kappa, L234A L235A)
heavy: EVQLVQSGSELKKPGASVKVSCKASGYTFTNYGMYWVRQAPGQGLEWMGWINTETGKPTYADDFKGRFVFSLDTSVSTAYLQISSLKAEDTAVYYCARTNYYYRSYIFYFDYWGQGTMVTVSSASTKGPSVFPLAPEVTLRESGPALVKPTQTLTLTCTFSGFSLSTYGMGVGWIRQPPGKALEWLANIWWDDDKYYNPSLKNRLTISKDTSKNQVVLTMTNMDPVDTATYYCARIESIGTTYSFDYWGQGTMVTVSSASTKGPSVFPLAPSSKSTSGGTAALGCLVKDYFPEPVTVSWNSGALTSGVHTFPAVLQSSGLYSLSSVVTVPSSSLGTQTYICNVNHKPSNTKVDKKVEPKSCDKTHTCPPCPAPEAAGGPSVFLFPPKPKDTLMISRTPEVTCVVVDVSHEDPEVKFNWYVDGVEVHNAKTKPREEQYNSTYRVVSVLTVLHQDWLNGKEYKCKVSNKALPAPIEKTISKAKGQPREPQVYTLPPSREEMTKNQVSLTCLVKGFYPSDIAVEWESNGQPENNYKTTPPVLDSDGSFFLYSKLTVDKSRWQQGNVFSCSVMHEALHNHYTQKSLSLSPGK
light: DTVLTQSPATLSLSPGERATLSCRASESVSTHMHWYQQKPGQAPRLLIYGASNLESGVPARFSGSGSGTDFTLTISSLEPEDFAVYFCQQSWNDPFTFGQGTKLEIKRTVAAPEFVLTQSPGTLSLSPGERATLSCERSSGDIGDSYVSWYQQKPGQAPRLVIYADDQRPSGIPDRFSGSGSGTDFTLTISRLEPEDFAVYYCQSYDINIDIVFGGGTKVEIKGTVAAPSVFIFPPSDEQLKSGTASVVCLLNNFYPREAKVQWKVDNALQSGNSQESVTEQDSKDSTYSLSSTLTLSKADYEKHKVYACEVTHQGLSSPVTKSFNRGEC
B8: 4G8.3-SL-9E8.4 anti-VEGF-A/anti-PDGF-BB DVD-Ig (PR-1564012) (bispecific antibody, human IgG1, kappa, L234A L235A)
heavy: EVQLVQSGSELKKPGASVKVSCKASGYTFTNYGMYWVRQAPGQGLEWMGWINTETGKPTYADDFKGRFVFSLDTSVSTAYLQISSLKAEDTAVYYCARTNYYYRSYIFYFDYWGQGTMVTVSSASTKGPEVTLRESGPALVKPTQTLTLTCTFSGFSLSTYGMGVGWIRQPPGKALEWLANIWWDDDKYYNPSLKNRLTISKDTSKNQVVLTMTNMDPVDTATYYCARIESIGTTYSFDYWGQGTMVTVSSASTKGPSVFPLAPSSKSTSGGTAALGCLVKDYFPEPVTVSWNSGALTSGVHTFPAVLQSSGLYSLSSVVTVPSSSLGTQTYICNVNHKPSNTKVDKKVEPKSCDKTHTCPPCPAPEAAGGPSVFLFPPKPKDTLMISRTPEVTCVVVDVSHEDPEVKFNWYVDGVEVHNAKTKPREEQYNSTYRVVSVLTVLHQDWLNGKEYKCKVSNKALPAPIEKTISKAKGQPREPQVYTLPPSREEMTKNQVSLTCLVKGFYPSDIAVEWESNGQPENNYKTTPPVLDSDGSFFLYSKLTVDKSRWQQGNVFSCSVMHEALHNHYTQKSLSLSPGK
light: DTVLTQSPATLSLSPGERATLSCRASESVSTHMHWYQQKPGQAPRLLIYGASNLESGVPARFSGSGSGTDFTLTISSLEPEDFAVYFCQQSWNDPFTFGQGTKLEIKRTVAAPSVFIFPPEFVLTQSPGTLSLSPGERATLSCERSSGDIGDSYVSWYQQKPGQAPRLVIYADDQRPSGIPDRFSGSGSGTDFTLTISRLEPEDFAVYYCQSYDINIDIVFGGGTKVEIKGTVAAPSVFIFPPSDEQLKSGTASVVCLLNNFYPREAKVQWKVDNALQSGNSQESVTEQDSKDSTYSLSSTLTLSKADYEKHKVYACEVTHQGLSSPVTKSFNRGEC
B9: BEW-9A8-E2 (antibody, IgG2a, V domains shown)
VH: QIQLVQSGPELKKPGESVKISCKASGYTFTNYGMYWVKQAPGQGLQYMGWINTETGKPIYADDFKGRFVFFLETSASTAYLQINNLKNEDMATFFCARVDYDGSFWFAYWGQGTLVTVSS
VL: DTVLTQSPALAVSPGERVSISCRASESVSTVIHWYQQKPGQQPKLLIHGASNLESGVPARFSGSGSGTDFTLTIDPVEADDTATYFCQQHWNDPPTFGAGTKLEMK
notes: Rat hybridoma antibody, isotype IgG2a/kappa
B10: BEW-1E3-D6 (antibody, IgG2b, V domains shown)
VH: QIQLVQSGPELKKPGESVKISCKASGYPFTNSGMYWVKQAPGQGLQYMGWINTEAGKPTYADDFKGRFVFFLETSASTAYLQINNLKNEDMATYFCARWGYISDNSYGWFDYWGQGTLVTVSS
VL: DTVLTQSPALAVSPGERVSISCRASEGVYSYMHWYQQNPGQQPKLLIYKASNLASGVPARFSGSGSGTDFTLTIDPVEADDTATYFCHQNWNDPLTFGSGTKLEIK
notes: Rat hybridoma antibody, isotype IgG2b/kappa
B11: BEW-9E3-B9 (antibody, IgG2a, V domains shown)
VH: QIQLVQSGPELKKPGESVKISCKASGYTFTNYGMYWVKQAPGQGLQYMGWINTETGKPTYADDFKGRFVFFLETSASTAFLQINNLKNEDMATYFCARPSDYYDGFWFPYWGQGALVTVSS
VL: B10 VL with V3I, V18I, Y29N, H88Q, N90S
notes: as for B9
B12: BEW-8E6-E4 (antibody, IgG2a, V domains shown)
VH: QIQLVQSGPELKKPGESVKISCKASGYTFTDYAMHWVKQAPGKVLKWMGWINTFTGKPTYIDDFKGRFVFSLEASASTANLQISDLKNEDTATYFCARGNYYSGYWYFDFWGPGTMVTMSS
VL: DIQMTQSPASLSASLGETISIECRASEDISSNLAWYQQKSGKSPQLLIFAANRLQDGVPSRFSGSGSGTQFSLKISGMQPEDEGDYFCLQGSKFYTFGAGTKLELK
notes: as for B9
B13: BEW-6C2-C8 (antibody, IgG2b, V domains shown)
VH: EVQLVESGGGLVQPGSSLKLSCAASGFTFSYYGMHWIRQAPKKGLEWMALIYYDSSKMYYADSVKGRFTISRDNSKNTLYLEMNSLRSEDTAMYYCAAGGTAPVYWGQGVMVTVSS
VL: NIQLTQSPSLLSASVGDRVTLSCKGSQNIANYLAWYQQKLGEAPKLLIYNTDSLQTGIPSRFSGSGSGTDYTLTISSLQPEDVATYFCYQSNNGYTFGAGTKLELR
notes: as for B10
B14: BEW-10H2-B9 (antibody, IgG2b, V domains shown)
VH: QIQLVQSGPELKKPGESVKISCKASGYSFTNFGLYWVKQAPGQGLQYMGWIDTETGKPTYADDFRGRFVFFLETSASTAYLQINNLKNEDMATYFCARVYGYPSWYFDFWGPGTMVTVSS
VL: DIQMTQSPASLSTSLEEIVTITCQASQDIDNYLSWYQQKPGKSPQLLIHSATSLADGVPSRFSGSRSGTQFSLKIHRLQVEDTGIYYCLQHFFPPWTFGGGTKLELK
notes: as for B10
B15: BEW-5C3-E7 (antibody, IgG2b, V domains shown)
VH: QIQLVQSGPELKKPGESVKISCKASGYTFTNYGVYWVKQAPGQGLQYMGWINTETGKPTYADDFKGRFVFFLETSTNTAYLQINNLKNEDMATFFCARARQLDWFVYWGQGTLVTVSS
VL: DTVLTQSPALTVSPGERVSISCRARESLTTSLCWFQQKPGQQPKLLIYGASKLESGVPARFSGSGSGTDFTLTIDPVEADDTATYFCQQSWYDPPTFGGGTKLELK
notes: as for B10

Changes are numbered by the printed parent chain.

recombinant rat PDGF-BB, sequence (Q05028 74-182 limits assumed): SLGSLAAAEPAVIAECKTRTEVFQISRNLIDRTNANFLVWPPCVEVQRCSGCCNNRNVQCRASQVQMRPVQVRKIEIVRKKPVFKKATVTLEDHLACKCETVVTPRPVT

The target in the first experiment is T1, Human VEGF-A 165 (human, UniProt P15692 207-395). The experiment in a line: cell-based or functional assay.
T1 sequence (P15692 other isoform, or with tags, fused parts or gaps limits assumed): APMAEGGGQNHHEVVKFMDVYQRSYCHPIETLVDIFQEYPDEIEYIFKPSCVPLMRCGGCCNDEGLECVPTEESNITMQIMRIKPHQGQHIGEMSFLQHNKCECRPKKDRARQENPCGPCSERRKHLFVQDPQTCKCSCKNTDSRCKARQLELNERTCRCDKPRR
As for B1, the “hVEGF165 IC50 (nM), HMVEC-d proliferation” value (“hVEGF165 IC50 (nM)” below) was 0.138 nM. Take B2: the “hVEGF165 IC50 (nM)” value was determined as 0.212 nM. Turning to B3, the “hVEGF165 IC50 (nM)” value worked out at 0.161 nM. Same read-out and setting: under B4 stands 0.184 nM.

In a further experiment the target is recombinant human VEGF165 (human, UniProt P15692 207-395). As to the kind of experiment: cell-based or functional assay.
recombinant human VEGF165, sequence (P15692 other isoform, or with tags, fused parts or gaps limits assumed): as above
On to B5, for which the “HMVEC-d hVEGF165 Potency IC50” value amounted to 2.64 nM.

The next experiment deals with recombinant human PDGF-BB (human, UniProt P01127 82-190). As to the kind of experiment: cell-based or functional assay.
recombinant human PDGF-BB, sequence (P01127 82-190 limits assumed): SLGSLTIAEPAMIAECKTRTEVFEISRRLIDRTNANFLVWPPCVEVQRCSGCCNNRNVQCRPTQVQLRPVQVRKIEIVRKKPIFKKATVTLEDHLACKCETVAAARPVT
Consider B5, for which the “NIH-3T3 hPDGF-BB Potency IC50” value was found to be 0.076 nM.

The target of another experiment is recombinant murine PDGF-BB (mouse, UniProt P31240 82-190). As to the kind of experiment: cell-based or functional assay.
recombinant murine PDGF-BB, sequence (P31240 82-190 limits assumed): as the sequence (Q05028 74-182 limits assumed) above, with V83I, V102I counted along it
Turning to B6, the “Potency IC50 (nM) mPDGF-BB (NIH-3T3 proliferation)” value (“Potency IC50 (nM) mPDGF-BB” below) turned out to be 0.44 nM. B7: the “Potency IC50 (nM) mPDGF-BB” value was found to be 0.11 nM.

B8: the “Potency IC50 (nM) mPDGF-BB” value was determined as 0.29 nM.

Another experiment concerns the target recombinant rat PDGF-BB (rat, UniProt Q05028 74-182). As to the kind of experiment: cell-based or functional assay.
Turning to B6, the “Potency IC50 (nM) ratPDGF-BB (NIH-3T3 proliferation)” value worked out at 1.36 nM. On the same count and under the same terms, next, B7: 0.21 nM; B8: 0.65 nM.

The target of the next experiment is T2, Human VEGF-A 165 (human, UniProt P15692 207-395).
T2 construct: Recombinant; also called huVEGF-A165; hVEGF165
The experiment in a line: receptor competition ELISA, hVEGF165 binding to coated hVEGF-R2-Fc. The method, then: To identify molecules that could block the binding of hVEGF₁₆₅ to the hVEGF-R2 (KDR/Flk-1) receptor, a competition ELISA was performed. […] Plates were then washed four times with wash buffer (TBS, 0.05% Tween-20) and blocked with Superblock blocking buffer (Thermo Scientific, cat#37535). […] The pre-incubated sample/hVEGF₁₆₅ complex was added to the coated plate at 50 μL in duplicate and incubated for 30 minutes at 25° C. with shaking. Following incubation, plates were washed four times with wash buffer. Streptavidin-polyHRP-40 (Fitzgerald cal#65r-s104phrp) was diluted in assay diluent (10% Superblock containing 0.05% surfactamps) and added to plates (50 μL) for 45 minutes at 25° C. with shaking. Plates were washed four times with wash buffer and developed with the addition of Enhanced K-blue TMB substrate (Neogen cat#308177). The reaction was stopped with 2N sulfuric acid (VWR, cat# BDH3500-1) and the absorbance was read at 450 nm-570 nm. A decrease in observed optical density indicates the test molecule is blocking the hVEGF₁₆₅ binding to the hVEGF-R2-Fc. Data was analyzed using Softmax Pro 4.8 software and IC₅₀ values calculated using a sigmoidal dose response (variable slope) fit in GraphPad Prism 5.
Anti-VEGF-A antibodies derived from rat hybridomas were characterized for binding, function and cross-reactivity in a panel of assays. Supernatants were tested for the ability to bind hVEGF₁₆₅ (Example 1.3) and block binding of hVEGF₁₆₅ to hVEGFR2 in a competition ELISA format (Example 1.4).
Background: An ELISA detects its analyte on a solid surface through an enzyme-linked reagent.
T2 sequence (P15692 other isoform, or with tags, fused parts or gaps limits assumed): as the sequence (P15692 other isoform, or with tags, fused parts or gaps limits assumed) above
As to B9, the IC50 is 0.249 nM. On the same count and under the same terms, next, B10: 0.62 nM; B11: 0.124 nM. The same measure, in the same setting: under B12 stands 0.342 nM.

For the molecule B13, the IC50 amounted to 0.197 nM.

In turn, B14 had an IC50 of 0.42 nM. On the same count and under the same terms, next, B15: 0.156 nM.

In another experiment the target is T1, Human VEGF-A 165. The experiment in a line: SPR (Biacore), antibody captured via anti-human Fc, antigen in solution. The method, then:
For example, approximately 9000 RU of goat anti-human Fc specific polyclonal antibody (Thermo Fisher Scientific Inc., Rockford, Ill.) diluted in 10 mM sodium acetate (pH 4.5) is directly immobilized across a CM5 research grade biosensor chip using a standard amine coupling kit according to manufacturer's instructions and procedures at 25 μg/ml. Unreacted moieties on the biosensor surface were blocked with ethanolamine. For kinetic analysis, rate equations derived from the 1:1 Langmuir binding model were fitted simultaneously to multiple antigen injections (using global fit analysis) with the use of Scrubber 2 (BioLogic Software), Biacore Biaevaluation 4.0.1 software or Biacore T100 Evaluation software. Purified antibodies or DVD-Ig molecules were diluted in running buffer for capture across goat anti-human Fc reaction surfaces. Antibodies or DVD-Ig molecules to be captured as a ligand (1 μg/ml) were injected over reaction matrices at a flow rate of 10 μl/minute. During the assay, all measurements were referenced against the capture surface alone (i.e., with no captured antibody or DVD-Ig molecule). […] The equilibrium dissociation constant KD (M) of the reaction between antibodies and the target antigen was then calculated from the kinetic rate constants by the following formula: KD=Koff/Kₒₙ. Binding was recorded as a function of time and kinetic rate constants were calculated.
(In general: Surface plasmon resonance follows binding to a sensor surface in real time, without labels.)
Consider B1, for which the Kd amounted to 0.0077 nM and the kon came to 1.1e+07 M⁻¹ s⁻¹.

As to B2, the Kd is 0.0097 nM and the on-rate constant (kon) was 9.8e+06 M⁻¹ s⁻¹. The corresponding values for B3 are 0.0092 nM and 1.1e+07 M⁻¹ s⁻¹.

The molecule B4 returned a Kd of 0.01 nM and a kon of 1e+07 M⁻¹ s⁻¹.
